What was measured:
HNF-1A DBD N266S = HNF-1A DBD N266S (Homo sapiens, UniProt P20823 83-279, N266S); test: ITC
HNF-1A DD-DBD R263C = HNF-1A DD-DBD R263C (Homo sapiens, UniProt P20823 1-279, R263C); test: ITC
HNF-1A DD-DBD N266S = HNF-1A DD-DBD N266S (Homo sapiens, UniProt P20823 1-279, N266S); test: ITC
HNF-1A DBD R263C = HNF-1A DBD R263C (Homo sapiens, UniProt P20823 83-279, R263C); test: ITC
SEC-MALS = target: the molecule itself; test: SEC-MALS

B1: RA (rat albumin promoter oligonucleotide), unlabeled (dsDNA)
DNA 1: CTTGGTTAATAATTCACCAGA
DNA 2: TCTGGTGAATTATTAACCAAG
Kd (HNF-1A DBD N266S): 570 ± 50 nM | Kd (HNF-1A DD-DBD R263C): 8000 ± 3000 nM | Kd (HNF-1A DD-DBD N266S): 740 ± 110 nM | Kd (HNF-1A DBD R263C): 2000 ± 140 nM

B2: HNF-1A DD-DBD (hepatocyte nuclear factor 1A, residues 1-279, WT) (domain or fragment, human, UniProt P20823 1-279, looked up)
chain: MVSKLSQLQTELLAALLESGLSKEALIQALGEPGPYLLAGEGPLDKGESCGGGRGELAELPNGLGETRGSEDETDDDGEDFTPPILKELENLSPEEAAHQKAVVETLLQEDPWRVAKMVKSYLQQHNIPQREVVDTTGLNQSHLSQHLNKGTPMKTQKRAALYTWYVRKQREVAQQFTHAGQGGLIEEPTGDELPTKKGRRNRFKWGPASQQILFQAYERQKNPSKEERETLVEECNRAECIQRGVSPSQAQGLGSNLVTEVRVYNWFANRRKEEAFRH
stoichiometry N (SEC-MALS): 2

B3: HNF-1A DD-DBD/R263C (residues 1-279, MODY3 variant p.Arg263Cys) (domain or fragment, human, UniProt P20823 1-279, looked up)
chain: MVSKLSQLQTELLAALLESGLSKEALIQALGEPGPYLLAGEGPLDKGESCGGGRGELAELPNGLGETRGSEDETDDDGEDFTPPILKELENLSPEEAAHQKAVVETLLQEDPWRVAKMVKSYLQQHNIPQREVVDTTGLNQSHLSQHLNKGTPMKTQKRAALYTWYVRKQREVAQQFTHAGQGGLIEEPTGDELPTKKGRRNRFKWGPASQQILFQAYERQKNPSKEERETLVEECNRAECIQRGVSPSQAQGLGSNLVTEVCVYNWFANRRKEEAFRH
stoichiometry N (SEC-MALS): 2

B4: HNF-1A DD-DBD/N266S (residues 1-279, variant p.Asn266Ser) (domain or fragment, human, UniProt P20823 1-279, looked up)
chain: MVSKLSQLQTELLAALLESGLSKEALIQALGEPGPYLLAGEGPLDKGESCGGGRGELAELPNGLGETRGSEDETDDDGEDFTPPILKELENLSPEEAAHQKAVVETLLQEDPWRVAKMVKSYLQQHNIPQREVVDTTGLNQSHLSQHLNKGTPMKTQKRAALYTWYVRKQREVAQQFTHAGQGGLIEEPTGDELPTKKGRRNRFKWGPASQQILFQAYERQKNPSKEERETLVEECNRAECIQRGVSPSQAQGLGSNLVTEVRVYSWFANRRKEEAFRH
binding result (SEC-MALS): binds

Source: paper PMC8988010 (The Journal of Biological Chemistry, 2021)
